The assay deals with αVβ3 integrin (UniProt P06756). The assay is described as follows: binding to αVβ3, against the unsubstituted sequence.
αVβ3 integrin, sequence (P06756 31-1048, chain 1 of 2): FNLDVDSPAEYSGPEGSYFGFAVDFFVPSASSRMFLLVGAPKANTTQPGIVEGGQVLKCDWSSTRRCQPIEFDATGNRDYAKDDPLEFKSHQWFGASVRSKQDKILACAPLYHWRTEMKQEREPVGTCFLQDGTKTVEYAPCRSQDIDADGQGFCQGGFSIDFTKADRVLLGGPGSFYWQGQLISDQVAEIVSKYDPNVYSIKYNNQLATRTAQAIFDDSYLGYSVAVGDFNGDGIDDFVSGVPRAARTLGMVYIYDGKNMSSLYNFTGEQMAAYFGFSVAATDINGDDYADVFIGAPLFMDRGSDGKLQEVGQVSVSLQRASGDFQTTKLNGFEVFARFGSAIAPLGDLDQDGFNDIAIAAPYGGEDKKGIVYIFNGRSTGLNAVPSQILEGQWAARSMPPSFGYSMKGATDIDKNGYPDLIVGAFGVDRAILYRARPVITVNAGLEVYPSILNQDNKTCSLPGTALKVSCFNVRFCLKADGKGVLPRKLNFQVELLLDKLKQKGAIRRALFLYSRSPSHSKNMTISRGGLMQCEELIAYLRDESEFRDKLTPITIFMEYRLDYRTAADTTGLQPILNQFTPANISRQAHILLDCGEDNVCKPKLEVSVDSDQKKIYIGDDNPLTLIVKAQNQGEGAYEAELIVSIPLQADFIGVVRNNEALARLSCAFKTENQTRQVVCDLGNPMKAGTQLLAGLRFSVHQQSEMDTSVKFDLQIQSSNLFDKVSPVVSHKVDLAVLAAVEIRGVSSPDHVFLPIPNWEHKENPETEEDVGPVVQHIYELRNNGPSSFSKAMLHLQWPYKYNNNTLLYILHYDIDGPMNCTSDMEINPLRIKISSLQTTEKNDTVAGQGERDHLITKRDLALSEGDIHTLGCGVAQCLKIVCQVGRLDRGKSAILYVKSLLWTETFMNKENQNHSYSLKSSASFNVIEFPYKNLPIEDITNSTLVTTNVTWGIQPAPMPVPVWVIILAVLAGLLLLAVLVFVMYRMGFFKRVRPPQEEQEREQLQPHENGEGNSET
αVβ3 integrin, sequence (P05106 27-788, chain 2 of 2, further chain): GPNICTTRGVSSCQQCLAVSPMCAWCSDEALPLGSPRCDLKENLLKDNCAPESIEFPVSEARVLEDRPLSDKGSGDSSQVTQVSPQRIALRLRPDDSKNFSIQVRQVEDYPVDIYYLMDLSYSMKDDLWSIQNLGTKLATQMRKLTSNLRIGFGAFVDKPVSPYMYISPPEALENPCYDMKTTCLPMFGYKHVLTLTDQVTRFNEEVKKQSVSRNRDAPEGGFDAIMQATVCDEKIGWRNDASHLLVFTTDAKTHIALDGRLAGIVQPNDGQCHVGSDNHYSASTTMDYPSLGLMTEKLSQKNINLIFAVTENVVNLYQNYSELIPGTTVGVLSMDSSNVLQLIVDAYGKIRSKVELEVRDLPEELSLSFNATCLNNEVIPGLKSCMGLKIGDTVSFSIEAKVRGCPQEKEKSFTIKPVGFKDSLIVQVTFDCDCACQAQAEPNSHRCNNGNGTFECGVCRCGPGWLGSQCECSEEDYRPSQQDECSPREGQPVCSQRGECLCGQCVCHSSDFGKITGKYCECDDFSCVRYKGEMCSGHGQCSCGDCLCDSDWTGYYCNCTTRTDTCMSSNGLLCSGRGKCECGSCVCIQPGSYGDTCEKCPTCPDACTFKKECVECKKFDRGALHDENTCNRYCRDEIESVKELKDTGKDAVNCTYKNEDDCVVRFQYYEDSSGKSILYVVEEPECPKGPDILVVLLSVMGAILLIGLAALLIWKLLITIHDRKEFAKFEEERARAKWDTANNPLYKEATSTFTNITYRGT

Take “vitronectin sequence with the single arginine at position 374 changed to alanine (peptide)”: the decrease in binding was 70%.

These data come from patent US20050288217A1.
